{"source": "patent US20230243836A1", "key": {"[1]": {"biological_target": "VISTA (V-Domain Ig Suppressor of T Cell Activation) expressed on human cells (human) (UniProt Q9H7M9)", "sequence (Q9H7M9 33-311)": "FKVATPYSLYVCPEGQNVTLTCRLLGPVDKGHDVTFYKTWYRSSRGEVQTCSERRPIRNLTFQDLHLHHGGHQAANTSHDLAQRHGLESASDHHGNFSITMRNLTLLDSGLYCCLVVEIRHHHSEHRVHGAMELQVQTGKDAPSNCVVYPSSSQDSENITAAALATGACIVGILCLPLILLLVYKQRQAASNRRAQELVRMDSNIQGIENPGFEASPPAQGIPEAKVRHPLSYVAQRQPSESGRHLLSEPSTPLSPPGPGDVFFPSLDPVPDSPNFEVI", "assay": "cell-based or functional assay"}, "[2]": {"biological_target": "T1, P-selectin glycoprotein ligand 1 (PSGL-1) expressed on human cells (human) (UniProt Q14242)", "T1 sequence": "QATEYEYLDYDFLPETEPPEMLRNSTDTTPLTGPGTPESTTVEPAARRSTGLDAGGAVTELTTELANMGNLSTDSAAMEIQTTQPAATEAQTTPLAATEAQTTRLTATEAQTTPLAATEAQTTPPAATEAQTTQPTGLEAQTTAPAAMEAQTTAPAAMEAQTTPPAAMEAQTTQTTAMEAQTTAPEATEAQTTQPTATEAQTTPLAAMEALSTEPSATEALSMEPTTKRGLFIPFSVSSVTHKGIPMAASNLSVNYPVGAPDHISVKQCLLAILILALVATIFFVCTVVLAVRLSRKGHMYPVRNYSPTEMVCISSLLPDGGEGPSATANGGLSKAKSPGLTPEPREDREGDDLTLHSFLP", "assay": "CAPTIREC (TRICEPS) ligand-receptor capture on naive human T cells, LC-MS/MS; enrichment against the anti-CD28 antibody control"}}, "data": [{"substance": "PSGL-1-Fc fusion protein (Example VIII) (from UniProt Q14242 18-320)", "values": [{"measurement": "fold decrease in IL-2 release from CD4+ T cells (72 h)", "setting": "[1]", "result": 2, "unit": "fold"}]}, {"substance": "VISTA-Fc fusion protein", "values": [{"measurement": "Log2 FC (log2 fold change)", "setting": "[2]", "result": 2.33}]}]}
